The record followed here is patent US8435786.

The target in this experiment is Fas receptor (CD95) on mouse bone marrow cells (mouse) (UniProt P25446). The experiment can be described thus: cell-based or functional assay.
Chain of Fas receptor (CD95) on mouse bone marrow cells (mouse) (P25446 22-327): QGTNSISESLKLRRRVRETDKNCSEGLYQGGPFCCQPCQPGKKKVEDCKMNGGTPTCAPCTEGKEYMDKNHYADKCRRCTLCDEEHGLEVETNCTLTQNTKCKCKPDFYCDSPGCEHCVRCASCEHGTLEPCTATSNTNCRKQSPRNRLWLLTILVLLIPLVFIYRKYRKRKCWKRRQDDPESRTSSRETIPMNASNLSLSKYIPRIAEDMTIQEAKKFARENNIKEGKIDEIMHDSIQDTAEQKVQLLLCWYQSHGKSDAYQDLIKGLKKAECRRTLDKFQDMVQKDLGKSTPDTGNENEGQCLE

Chain of streptavidin-FasL chimeric protein (P22629 37-163, change not shown): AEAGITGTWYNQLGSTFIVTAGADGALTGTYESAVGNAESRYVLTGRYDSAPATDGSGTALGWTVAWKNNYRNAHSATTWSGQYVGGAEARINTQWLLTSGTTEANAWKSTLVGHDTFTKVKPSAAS

For “streptavidin-FasL chimeric protein (from UniProt P22629 37-163) (ligand)”, the apoptotic death of wBMC after 24 hours with FasL protein (annexin-V, 7AAD) (% of the cells) is 40; the clonogenic activity of STR cells at 500 ng/ml FasL protein was 26 % increase; the clonogenic activity of STR cells with FasL and inhibition of caspase-3 (DEVD) is 75 % increase; the clonogenic activity of lin- BMC (CFU assay) (% stimulation at ~500 ng/ml FasL) was 45.
